# US20220072120A1 (University of Washington, published 2022)
# B1: I53-dn5 A.2 (A_LF2_W16G_LS) (designed binder)
# chain: MGKYDGSKLRIGILHARGNAEIILELVLGALKRLQEFGVKRENIIIETVPGSFELPYGSKLFVEKQKRLGKPLDAIIPIGVLIRGSTAHFDYIADSTTHQLMKLNFELGIPVIFGVLTTESDEQAEERAGTKAGNHGEDWGAAAVEMATKFN
# Target: I53-dn5 B
# Assay: in vitro nanoparticle assembly; SEC on Superose 6, SDS-PAGE
binder,measurement,value
B1,binding result,binds
